Laboratory results published in the DeepSol protein solubility set.

experiment: soluble on expression in E. coli; label from the status in PepcDB or PDB records

Row | Sequence | soluble on expression in E. coli
1 | MAGEKAQKKGKEKWKEKTWYTVESPPYLGSKEVTVALGEDPESMVNRIVEVPISDLTGNFKKSNEKALFRITGCEGTKCKTIFIGHYIGDDYIRRLVRRRKERIDIIEDVKTSDGSIITVKIVVVSDGKLTNTKKSEIRKALTSFIVSKGSQLSYADFVRYLIGDDSYNDMVEATKNIYPLRKIEIRKSELVSLSGMQEPQKNEPAPGGEAIAQNLEHHHHHH | soluble
2 | MAGGFGVGKTTFVGAVSEIAPLSTEELLTTVGAATDNLDGIENKVETTVAMDFGRITLDPEHVLYLFGTPGQQRFWFMWDELSEGALGAVILADTRRLEDCFAAVDFFEQRGLAFIVAINDFDGGYRYDPAEVRAAIDLDPHIPVVRCDARISSSGVQTLLTLVRHLLAHAPATAPSHGAHTLEHHHHHH | not soluble
3 | MAHHHHHHMADYNAAGADTAVVDDNVPPGITTKQDEIIQYVAKYVVASCDGARYQDKVRTRTKHNPYFDFLNAKHPYHQYYQYLLESYRHWMRNSEAVGAGTWGGGVDATQGQGQQQQWNEEDYYQYYGAYAGQASGIEFQGNAAGQLGEGSSYVDASSSAHARNASSGVDPTSYESEAVTATGYGAGYDPSAVDPEPAQVATTAGGGEAQAEEDEDDEYELVMENGQWVSRKRM | soluble
4 | MAHHHHHHMAEAKVVKDLAEVCASGAETYSAWTTAKALVQRRYLSAKAQGTFEDCGKLLASLTRVLQTYLRIDLAQELLSDVLFQVMEHFSAKQAAGATAAVVKDGGAPQSSFDLAAANFLQHMFDTLLSATTRTYTLMGPMPLVVEWNRDADSGGVEAAVAQSKHAAPWAEAVVLEFAVRAADFLSQRPQSADVLSHWAQNLFVSYEQLLALRLALPSSPPSTPQDGKAASAAAPSPSVPVPTLASQLLRMSTFNRASRTGKESSDSTSAATTPLTAAVYWLTHFAREPNAVNHLFAQYVYFDILGRGQQRSSTANTTPGNSGAPAKMLRERVNAALEERCTLTRREAISMARAAVEAYWQAFPLVLQQTSSVSSPQPSSCAGESSKEDANVDPQDVHLYRWTWFLDSLTLTFAYSGSASASIDEDAAVQQRERQKHVCAQLLELYADVTAELPGLKWQELVAAYIGA | soluble
5 | MAHHHHHHMALQENRDSYKVKALSLSEFVQQCSDCHQLCLEKTVRVLDNRSRAPRGWEALFNSVAEERRSEDLDLCESRCRYMQTTCPSQDKVQQYEQALAAASLKLKKSTPPNPSVLQDASRCEHAVEVFSNVLFALAHKPSKVSFPTKDLKTGGNTDAESHAGAPTEAHRKVLEGAKNMDNDVSCRSSKLRHERFGSKAQDVASSTGSSLAPDTAAASPASSGTTPKW | not soluble
6 | MAHHHHHHMANIITLKSAWDVDRHIVLDSADKLVLIRFSSYTSAAVEAEEYSRQVKRGTATSTSTVAEGSSNSSSSALPTRKRRHDDADGNSACAVTSAATAALLSANVDEHYLRTRQMDALLSELAPKVRKYCTIYFVDTREVTAFNELYELGHDRDPFAVMFFYRNRHIRVDVGTGNNNKINFFAFEDLYDFLPIVDAAYKAGRQGRSIASCDRKFSTVALRR | soluble
7 | MAHHHHHHMAPGVIPTVFRSERDREWAAQRFNYKKGSDDEERVARKRLLFARDRVHLPDDTVVETIRSPTEQLEELRALREHPPMHLLSEQLNSIAEESHRYAAALAAAAAAQPADPKDVASPASLRSDAAATSSLDGVALPPLPGAAAVVSSPPQVEIQFEDRSLFATAAILFRDRDDRVVRAMRFIGACGMVWKEVA | soluble
8 | MAHHHHHHMAVLIKNNEASLVDMAVQDFIKLGIDGVYTTMKTVVSFEYIFNFTSHMRNLHKYSTNFLELQINGHNKECVTNILQNLTLENIRKSTSTSIKAGFEFINTLNDDIKKKYFSENLNYMVMVTITWDIHTDNRIPSNEPFSILCYIKCLPKHSNNVQIDIMCGERKTPNIKYSNVFDVRNKMLKLKSEDSHEVVLYNEKEEITEGLTCNFFCFFNDTLYTAKDELVLKGTMREQIIQICEEVGITLKRKVST | not soluble
9 | MAHHHHHHMCVHTFVRMNAWMCSSLSITQQNTITPPHYMQNSAFRVASLLQSRHRRGICDEGESTLAKLTQGVEMFLQHAADVPPVMLEKLSEVGDADTSTNGCSERHDDVDESMDEAEVHLSVVAGVLEPREMPKNVSTMSGLLLPTADNRKALERQKVEEAQAMLNLLAALTANNKKENTIGALTGTSEAEVDDESTTTSDESVVICYADELESDTTSSCSEADAQQEPQRSARIIELN | not soluble
10 | MAHHHHHHMCVPFKDQGQWIRQVALQVEEVAPSERGTDRPAAATPRHHMSVGVVDYYSKCGRICETVAVLCEEWMDSGYMDGFSSRLVKEANAGRSISDAPHRDAVFDSFCAPSPHCKKHAIFVRELDLALTTDTELRASIDADRPQEIETEEREMETMLHRLTREQGQSADVFSRDEIRRMKEAFVTGNKEDLQAVDPTAFDLTDDEFSTLKDYMHGEERKQQQQQRQRRPSAPSDADDL | not soluble
11 | MAHHHHHHMDAFRSLTIGTKFSAARNEEAAKLFRNAGKDKGSHGFPDAIGADGAVTLENASDMGSSSLSVPPPSATLNLFGRPTRSHADANAHLGVSAGSDAAAAANTASENKALKAITFKKKRNIWRRNDLQVTGTDLPAPIEHFSDLVRPPLNVPRNVVNNLFARQHKVPTPIQMQAISSLIHHRDVLACAPTGSGKTIAFLVPLFALLKAPDASCGVRALIVTPTAELAQQIEREAFFLMKGQRWKFVQHGQTTKKKDIFIATPGRILSLLEQKLLDLSNVQYLVFDEGDRLWDSRTDFLTVIDRILTACTRTDKVVSLFTATLSEKVEAAARSVMGADPVRIIVHGRRSANTHVKQRLVFCGNELGKVVAMRNLVREGITPPVLVFVQSVERSKELYEEIRMEGLHMAIMHAKMTVEQREETVLQFRLGKIWVLVTTELLARGIDFKNVGTVINFDFPATVDSYIHRVGRTGRAGKEGTAITFFTEDDKERLPPIAKVMQDSGNAVEDWILGIKVDRSTRRRLERTTPQRTIVSTRKRMLVAQQRVQRQYRRLEAEKAAKQASKRSKGCGDCDRDDGDDSTDDA | not soluble
12 | MAHHHHHHMDEGDHSDKESVGEEIVGEDHVEDKDGKPKRSYEKMVEEIKIENSKSFISKISEPLLKKKYFKYFLKILDYAYYAKVTAMQIIKTNEQIEERKKKILKNKFVVIGITQVVKAIRKGVDGIVFLAIDVFPIDIICHMPVFCEEHKIPYTFVTTKNKLARLCKLKRSVTCLFLPKPNIDIDKFEATVNEFSSKKKISNYAKLYEKMLSGVKKNHPFFQS | soluble
13 | MAHHHHHHMDRRHLELEDAQERASAEEVATQASAEHKHYMNDSDEDSDEENGIDDEQSASLVAMLRTQEEIDSAIAGFTKGTRMLLASSGNGYVSYLDGSVHFTIAKVESHNASNREKVMQALAGTNVAMPTAEEYSLEEVRQAMHDRDTARKKLDALRALQDPTYTARIRSAEKDTYGTPVQQLMEEDGDMSALVANCEDAKRFAESVRKAYNSRAAASAHALACALCTPPFTAEQESTSEAQAPAGKMANAEDGVSQPTGANSPSSSTSAQ | soluble
14 | MAHHHHHHMDSQTPHGDVVDEATMAVLPEHGLIFSEIKQMQLLLCKPKLLPVKSYSLEKLEKMEKKLAREAKEKRDANRAQRQAPLVWTSPDLTAGEGVKTIPAPSPLVTVAPAPPQNVASTPLRDGGATPPSAAPAVASSASSRGAASQETLSFTPVHTEGETCADASMSAPERSPRISPSTDVSSSSPSPSASTTD | soluble
15 | MAHHHHHHMDVKEYTHNIIDIDISNHIKIRSSNNYNNKKLKETIRQNAKKIRDITFKYWIKEKQLQSGNFVINDENINDKMIIENKKDIINNINNDKKISYSYVDSFQTCVTNSKDEEGVLYIDDLYTYLIRQLYILFCSLEVRKKKNNVQFDFTRIYKYTYNYKKLESHISYEYLKKYDINDDIIKNDIENFHFYAYDHNIEDPKKYCDMEENYNNANYNICIYLPTKKEIDILFIIDQLYDYFYFVLYVPITTKEKDLIFFPFNIKNNLLVQYHFNIFIPYDYIYYTTYKKMNNFILNYSKIVKNYELSNSLYKHNDTIILIPLIAYNKLGYRIGSGKGYYDKTLTKTRKKNDIIKQIKNIQMNDNIITNNKDHDIQKENHLYLGTKNDTNNIICSNVKNIKHKTFNNEIEIYTQNKQKIYFNEIKIGVSFEMFLYDIDFSETTDLILDYMINENNIYHFIL | not soluble
16 | MAHHHHHHMEAGTSPIRAGSSDGGGSVRGDIFRRHSVNSGENNMNDNKDNDSNTEWSEQFRLIARRMSRALLRNPHPDVQTDKRVMYGVLYELFEQWSERQQRAHSVSLTVEQVGSILRYGEQTLRQASLTAPALNKAQVVVDLIAASPLITIGALTQELRGLQPPVVLTPMAEVLELARLLDVSQGVRTPVGAVNLVHFIALSSTLCPAPDMGALLLLVASNVKRCHLLCAAIYYEWAMIDAQNREGLLLLSRELEEKHQQMCEGFTVDILTPLLTGSFEPFGARPTDPVAVDYLGMGSLPCTGTAEEQQRCHQLAPPSGNELEPTCEDSDTGGHGEGDCESSVEDEYDSDCRDTVDTEFWLRLSS | not soluble
17 | MAHHHHHHMEDMYEMQHSNLRCLPENYNLRYYYYHLLSWPQLLYVQQDYNRNTVGYVLGKMDDEEVPDKKHGHITSLAVLRSHRKLGIASRVMRATMKEMDAEYGAHYCSLHVRKTNDAALHLYQDTLGFRCVGVEEKYYMDEEDAYHMKSFFHQANPGSYVDDHKRLIRKTVPGELEGGPAAAGASSPAVGGRGGDKNGKRGNDKAAKEISAKEREAAMAELLGLEVGGKGRAAGGGAGGKGKSGNSSGGGGKRGSGRQK | soluble
18 | MAHHHHHHMEGSSGHLKSTAVAHNDGQALPPAAGAGHAPPTSNAAAGQQKTDQPPIAAVPVMSVAERAAATAEAERALSLLCTIRAVRRQTEELTVLLLHACGEWGCWSVPTAEEGVACETTRTPLPSSPLPGRIRHSQHLFADLFVAAPLAPTAFCTSSSVSLVGVSDGTAKADLLDLSAGEDADPARLSAASVFAKESACRRERACQALRQALQQQQQRWSLSTAAAATATLAAGAAFLEMALAPPQRAVPPPPPMSVQLDLYAVQPCALQRSIQEWRPRAAQTTAAGATKAGGTSPPEEAASLHCSLQQLLHTLGRQGPQLQSSYDVLHAAAGQRHRTNTRSCTDEQRGVPPREATTGVIKAAEARAVVHKTHGTSAAASDAPQEVEVPPLPSSSSPLAVAPDTLRRTPSSLPRQHSSTTPSSSSQALPSSDTLLSSPVQLAVDHTRLWADPPTPLQRADFSCAAAAAPTSTEISERGARIPVHQAGRSVLEDASSHRTKGKPELEAHVEVEVIGGNADGSHAAAGASSSNSTQVTNMRRTSLSSSTFFHSPVAVDARGGVVGALREVYEASWQPCSNARPSTRPEAAHAVAVAEEKLASQHQEERRSRRCDRGGSATAVELEDSVRRHLTRWMSQQPNDRAWVSGGPGLGPASFLLDPIRHAPGSSRAATRATDATAPALGQGAGRDRRGSRRAVHSGVRVDPIREHAREEGAGAGTESPLDAWPRPGARTAGPRGPGCSRSAAEMSELQLCMCVLLA | soluble
19 | MAHHHHHHMEKYEFPEDYVNPRNIPRIAYIPDVAAYVSNGGGADTVISNLLMESSKYEHMEKRLVSSLANLDYKIPTIKKTLNSLEFLQKQLEEAEQQEEDGKRAGIRSYYCLTDSVFGEAIVRPQKTVHLWMGAKVMVEYTFEEASALLKKNLSNAEVNMRNTKEDLAWLQEQITNLQINISRVYNYDLKNKRAKD | not soluble
20 | MAHHHHHHMEPYASPAAVPPPHVVYDALSKAQKAAPQLRPIPAFEVYKVAREEELAAYRMLCRVLFMHHGTPLPKAQQRILDDMGEDLCIGQTRQGLEKEMAEQDKVLQGIRKSGVLRRRGDFTDGVEEMTVEDYLAEAPKDDGNGLFMPTSKVRRVDGADSGATRATVIAAAAGLGAKRKGNVHAAVSKLAKEAETAGKSLLYASSAQEEQQLIQVLQQKRELLVALREELTEA | not soluble
